Laboratory results reported in the Human Domainome abundance scans (Beltran et al. 2025).
± gives the uncertainty stated by the source.

B1: Gamma-crystallin C, residues 4 to 79; numbered along this chain, P07315 (parent)
chain: ITFYEDRAFQGRSYETTTDCPNLQPYFSRCNSIRVESGCWMLYERPNYQGQQYLLRRGEYPDYQQWMGLSDSIRSC

Variants of: B1
Experiment: abundance fitness (aPCA) (normalised: wild type 0, dead -1); higher = more abundant; growth selection in yeast, the domain comes from the species named
Conditions: Homo sapiens

Question: Which abundance fitness does the source give for ITFYEDRAFQGRSYETTTDCPNLQPYFSRCNSIRVESGCWMLYERPNYQGQQYLLRRGEYPDYQQWMGLSDSIRHC here?
Answer: -0.88 ± 0.29

Question: Which abundance fitness does the source give for ITFYEDRAFQGRSYETTTDCPNLQPYFSRCNSIRVESGCWMLYERPNYQGQQYLLRRGEYPDYQQWMGLSDSIRWC here?
Answer: -0.875 ± 0.24

Question: With ITFYEDRAFQGRQYETTTDCPNLQPYFSRCNSIRVESGCWMLYERPNYQGQQYLLRRGEYPDYQQWMGLSDSIRSC as the variant, how does the abundance fitness read?
Answer: 0.061 ± 0.1

Question: With ITFYEDQAFQGRSYETTTDCPNLQPYFSRCNSIRVESGCWMLYERPNYQGQQYLLRRGEYPDYQQWMGLSDSIRSC as the variant, how does the abundance fitness read?
Answer: 0.013 ± 0.073

Question: With ITFYEDRAFQGRSYETTTDCPNLQPYFSRCNSIRVESGCWMLYERPNYQGQQYLLRRGEYPDYQQWMGLSDSIRSD as the variant, how does the abundance fitness read?
Answer: -0.834 ± 0.13

Question: Which abundance fitness does the source give for ITFYEDRAFQGRSYETTTDCPNLQPYFSRCNSIRVESGCWMLYERPNYQGQQYLLRRGEYPDYQQWMGLSDSIRSS here?
Answer: 0.051 ± 0.063

Question: Which abundance fitness does the source give for ITFYEDRAFQGRSYETTTDCPNLQPYFSRCNSIRVESGCWMLYERPNYQGQQYLLRRGEYPDYQQWMGLSDSIRSA here?
Answer: 0.056 ± 0.078

Question: With ITFYEDRAFQGRSYETTTDCPNLQPYFSRCNSIRVESGCWMLYERPNYQGQQYLLRRGEYPFYQQWMGLSDSIRSC as the variant, how does the abundance fitness read?
Answer: 0.041 ± 0.15

Question: For ITFYEDRAFQGRSYETTTDCPNLQPYFSRCNSIRVESGCWMLYRRPNYQGQQYLLRRGEYPDYQQWMGLSDSIRSC, which abundance fitness is on record?
Answer: 0.002 ± 0.066

Question: With ITFYEDRAFQGRSYETTTDCPNLQPYFSRCNSIRVESGCWMLYERPNTQGQQYLLRRGEYPDYQQWMGLSDSIRSC as the variant, how does the abundance fitness read?
Answer: -0.626 ± 0.41

Question: Which abundance fitness does the source give for ITFYEDRAFQGRSYETTTDCPNLQPYFSRCNSIRVESGCWMLYERPNYQGQQYLLRRGEYPDYQRWMGLSDSIRSC here?
Answer: -0.036 ± 0.057

Question: For ITFYEDRAFQGRSYETTTDCPNLQPYFSRCNSIRVESGCWMLYERPNYQGQQYLLRRGEYPDYQLWMGLSDSIRSC, which abundance fitness is on record?
Answer: -0.088 ± 0.064

Question: For ITFYEDRAFQGRSYETTTDCPNLQPYFSRCNSIRVWSGCWMLYERPNYQGQQYLLRRGEYPDYQQWMGLSDSIRSC, which abundance fitness is on record?
Answer: 0.003 ± 0.11

Question: For ITFYEDRAFQGRSYETTTDCPNLQPYFSRCNSIRVDSGCWMLYERPNYQGQQYLLRRGEYPDYQQWMGLSDSIRSC, which abundance fitness is on record?
Answer: 0.021 ± 0.13

Question: Which abundance fitness does the source give for ITFYEDRAFQGRSYETTTDCPNLQPYFSRCNSIRVESGCWMLYERPNYQEQQYLLRRGEYPDYQQWMGLSDSIRSC here?
Answer: -0.372 ± 0.074

Question: For ITFYEDRAFQGRSYETTTDCPNLQPYFSRCNSIRVESGCWMLYERPNYQNQQYLLRRGEYPDYQQWMGLSDSIRSC, which abundance fitness is on record?
Answer: -0.359 ± 0.13

Question: With ITFYEDRQFQGRSYETTTDCPNLQPYFSRCNSIRVESGCWMLYERPNYQGQQYLLRRGEYPDYQQWMGLSDSIRSC as the variant, how does the abundance fitness read?
Answer: 0.007 ± 0.11

Question: With ITFYEDRAFQGRSYETTTDCPNLQPYFSRCNSIRVESGCWMLYERPNYQGQQYLLNRGEYPDYQQWMGLSDSIRSC as the variant, how does the abundance fitness read?
Answer: 0.034 ± 0.33

Question: For ITFYEDRAFQGRSYETTTDCPNLQPYFSRCNSIRVESGCWMLYERPNYQGQQYLLKRGEYPDYQQWMGLSDSIRSC, which abundance fitness is on record?
Answer: -0.018 ± 0.29

Question: Which abundance fitness does the source give for ITFYEDRAFQGRSYETTTDCPNLQPYFSRCNSIRVESGCWMLYERPNYQGQQYLLDRGEYPDYQQWMGLSDSIRSC here?
Answer: -0.107 ± 0.15

Question: For ITFYEDRAFQGRSYETTTDCPNLQPYFSRCNSIRVESGCWMLYERPNYQGQQYLLRRGEYIDYQQWMGLSDSIRSC, which abundance fitness is on record?
Answer: -0.129 ± 0.14

Question: With ITFYEDRAFQGRSYETTTDCPNLQPYFSRCNSIRVESGCWMLYERPNYQGQQYLLRRGEYPDYQQWMGMSDSIRSC as the variant, how does the abundance fitness read?
Answer: -0.163 ± 0.1

Question: For ITFYEDRAFQGRSYETTTDCPNLQPYFSRCNSIRVESGCWMLYERPNYQGQQYLLRRGEYPDYQQWMGPSDSIRSC, which abundance fitness is on record?
Answer: -0.07 ± 0.12

Question: For ITFYEDRAFQGRSSETTTDCPNLQPYFSRCNSIRVESGCWMLYERPNYQGQQYLLRRGEYPDYQQWMGLSDSIRSC, which abundance fitness is on record?
Answer: -0.042 ± 0.079

Question: With ITFYEDRAFQGRSVETTTDCPNLQPYFSRCNSIRVESGCWMLYERPNYQGQQYLLRRGEYPDYQQWMGLSDSIRSC as the variant, how does the abundance fitness read?
Answer: -0.216 ± 0.092

Question: For ITFYEDRAFQGRSYETTTDCPNLWPYFSRCNSIRVESGCWMLYERPNYQGQQYLLRRGEYPDYQQWMGLSDSIRSC, which abundance fitness is on record?
Answer: 0.034 ± 0.075

Question: With ITFYEDRAFQGRSYITTTDCPNLQPYFSRCNSIRVESGCWMLYERPNYQGQQYLLRRGEYPDYQQWMGLSDSIRSC as the variant, how does the abundance fitness read?
Answer: 0.066 ± 0.23

Question: For ITFYEDRAFQGRSYETTTDCPNLQPYFSRCNSIRVESGCWMLYERPNYQGQQYLLRPGEYPDYQQWMGLSDSIRSC, which abundance fitness is on record?
Answer: -0.009 ± 0.12

Question: With ITFYEDRAFQGRSYETTTDCPNLQPYFSRCNSIRVESGCWMLYERPNYQGQQYLLRRGEYPDYQQWMGLHDSIRSC as the variant, how does the abundance fitness read?
Answer: -0.181 ± 0.15

Question: With ITFYEDRAFQGRSYETTTDCPNLQPYFKRCNSIRVESGCWMLYERPNYQGQQYLLRRGEYPDYQQWMGLSDSIRSC as the variant, how does the abundance fitness read?
Answer: 0.317 ± 0.13

Question: For ITFYEDRAFQGRSYETTTDCPNLQPYFSRCNSIRVESPCWMLYERPNYQGQQYLLRRGEYPDYQQWMGLSDSIRSC, which abundance fitness is on record?
Answer: -0.108 ± 0.14

Question: Which abundance fitness does the source give for ITFYEDRAFQGRSYETTTDCPNLQPYFSRCNSIRVESGCWMLYERPNYQGQQYELRRGEYPDYQQWMGLSDSIRSC here?
Answer: -0.004 ± 0.15

Question: For ITFYEDRAFQGRSYETTTDCPNLQPYFSRCNSIRVESGCWMLYERPNYQGQQYILRRGEYPDYQQWMGLSDSIRSC, which abundance fitness is on record?
Answer: -0.135 ± 0.15

Question: With ITFYEDRAFQGRSYETKTDCPNLQPYFSRCNSIRVESGCWMLYERPNYQGQQYLLRRGEYPDYQQWMGLSDSIRSC as the variant, how does the abundance fitness read?
Answer: -0.119 ± 0.11

Question: Which abundance fitness does the source give for ITFYEDRAFQGRSYETSTDCPNLQPYFSRCNSIRVESGCWMLYERPNYQGQQYLLRRGEYPDYQQWMGLSDSIRSC here?
Answer: -0.061 ± 0.088

Question: For ITFYEDRAFQGRSYETTTDCPNLQPYFSRCNSIRVEQGCWMLYERPNYQGQQYLLRRGEYPDYQQWMGLSDSIRSC, which abundance fitness is on record?
Answer: -0.124 ± 0.11
